Test results: patent US11312769B2, “Anti-TMEFF1 antibodies and antibody drug conjugates” (Bluefin BioMedicine, Inc., priority 2017, dated 2022)
Positions count from the first letter of the chain named. Numbers in names are those of the source.

T1: recombinant TMEFF1 (Homo sapiens, UniProt Q8IYR6)
T1 construct: generated to secrete the ECD from CHO cells to assist with biophysical evaluations; His tag (C); made in house; host or cells: CHO (ExpiCHO)
T1 sequence (Q8IYR6 40-330 limits assumed): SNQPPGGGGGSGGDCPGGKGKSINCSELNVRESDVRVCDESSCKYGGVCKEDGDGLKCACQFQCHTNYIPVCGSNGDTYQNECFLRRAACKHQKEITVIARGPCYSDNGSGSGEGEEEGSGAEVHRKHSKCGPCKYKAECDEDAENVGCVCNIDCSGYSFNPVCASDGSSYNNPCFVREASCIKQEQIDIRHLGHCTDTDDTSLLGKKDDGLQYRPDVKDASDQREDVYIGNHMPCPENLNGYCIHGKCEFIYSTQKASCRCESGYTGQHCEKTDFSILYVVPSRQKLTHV

B1: 3H9: human anti-TMEFF1 IgG1 antibody; VH SEQ ID NO: 114, VL SEQ ID NO: 117 (antibody, V domains shown)
VH: EVQLVESGGGLVKPGGSLRLSCAASGFVFSYAWMNWVRQAPGKGLEWVGRIKSKTEGGTTDNAAPVKGRFTISREDSKNTLYLQLNSLKIEDTAVYYCTTGRIAAAGFDYWGQGTLVTVSS
VL: DAVVTQESALTTSPGETVTLTCRSSTGTVTTSNYANWVQEKPDHLFTGLIAGTNNRAPGVPARFSGSLIGDKAALTITGAQTEDEAIYFCALWYSNHWVFGGGTKLTVLG
B2: 11F9: human anti-TMEFF1 IgG1 antibody; VH SEQ ID NO: 71, VL SEQ ID NO: 75 (antibody, V domains shown)
VH: B1 VH with V28T, N35S, E56D, N62Y, E75D, G112A
VL: B1 VL with A74V
B3: M1F1: human anti-TMEFF1 IgG1 antibody; VH SEQ ID NO: 9, VL SEQ ID NO: 13 (antibody, V domains shown)
VH: QVQLQESGPGLVKPSETLSLTCAVSGYSISSGYFWGWIRQPPGKKLEWIGSIYHSGSTYYNPSLKSRVTMSVDTSKNQFSLKLSSVTAADTAVYYCAREGDCSGGICYWYFDLWGRGTLVTVSS
VL: EIVMTQSPATLSVSPGERATLSCRASQSVSSNLAWYQQKPGQAPRLLIYGASTRATGIPARFSGSGSGTEVTLTISSLQSEDFAVYYCQQYNKWPLTFGGGTKVEIK
B4: M1H1: human anti-TMEFF1 IgG1 antibody; VH SEQ ID NO: 9, VL SEQ ID NO: 78 (antibody, V domains shown)
VH: B3 VH
VL: DIQMTQSPSSLSASVGDRVTITCRASQGISNYLAWYQQKPGKVPKLLIYAASTLQSGVPSRFSGSGSGTDFTLTISSLQPEDFAVYYCQQYNKWPLTFGGGTKLEIK
B5: M33F: human anti-TMEFF1 IgG1 antibody; VH SEQ ID NO: 9, VL SEQ ID NO: 141 (antibody, V domains shown)
VH: B3 VH
VL: B4 VL with D70E, F71V, P80S
B6: 29C4: human anti-TMEFF1 IgG1 antibody; VH SEQ ID NO: 118, VL SEQ ID NO: 122 (antibody, V domains shown)
VH: QVQLVESGGGVVQPGRSLRLSCAASGFTFSNYGMHWVRQAPGKGLEWVAVIWYDGGPKFYADSVKGRFTISRDNSKNTLYLQMNSLRAEDTAVYYCARSYCGGDCYPFDYWGQGDLVTVSS
VL: B4 VL with F83V, V85T, Q90K, N92Y, K93S, W94A, L96W, G100Q, L104V
B7: 35B1: human anti-TMEFF1 IgG1 antibody; VH SEQ ID NO: 66, VL SEQ ID NO: 70 (antibody, V domains shown)
VH: QVQLVESGGGVVQPGRSLRLSCAASGFTFTTYGMHWVRQAPGKGLEWVAVVWFEGNSKFYIDSVKGRFIISRDNSKNTLFLQMNSLRAEDTAVYYCARANCGADCYPFDYWGQGTLVTVSS
VL: B4 VL with T72S, Q79R, F83V, V85T, Q90K, K93S, W94A, L96W, G100Q, L104V
B8: M17: human anti-TMEFF1 IgG1 antibody; VH SEQ ID NO: 79, VL SEQ ID NO: 82 (antibody, V domains shown)
VH: QVQLVESGGGVVQPGRSLRLSCAASGFTFRSYGMHWVRQAPGKGLEWVALIWYDGGDQYYADSVKGRFTISRDSSKSTLYLQMNSLRAEDTAVYYCARAQCGDDCYPFDYWGQGTLVTVSS
VL: B4 VL with S30Y, F83V, V85T, Q90K, K93S, W94D, L96W, G100Q
B9: 37G7: human anti-TMEFF1 IgG1 antibody; VH SEQ ID NO: 85, VL SEQ ID NO: 88 (antibody, V domains shown)
VH: B7 VH with T31S, F53Y, N56S, I61V, F80Y, N100Y, A103G
VL: B4 VL with F83V, V85T, Q90K, K93S, W94A, L96W, G100Q, L104V
B10: 10C10: human anti-TMEFF1 IgG1 antibody; VH SEQ ID NO: 96, VL SEQ ID NO: 93 (antibody, V domains shown)
VH: QVQLVESGGGVVQPGRSLRLSCATSGFTFSIYGMHWVRQAPGKGLEWVAIIWYDGNKKYYADSVKGRFTISRDNSKNTLYLQMNSLRAEDTAVYYCARDPYTSSLDYWGQGTLVTVSS
VL: B4 VL with M4L, S10F, N31S, V43A, D70E, V85T, Y91L, K93S, W94Y
B11: 19D9: human anti-TMEFF1 IgG1 antibody; VH SEQ ID NO: 99, VL SEQ ID NO: 101 (antibody, V domains shown)
VH: B10 VH with T24A, I50N, N56S, A92S
VL: B4 VL with M4L, S10F, N31S, V43A, A50T, D70E, V85T, Y91L, K93S, W94Y
B12: 18C2: human anti-TMEFF1 IgG1 antibody; VH SEQ ID NO: 89, VL SEQ ID NO: 93 (antibody, V domains shown)
VH: B10 VH with T24A, K43M, W52R, N56S, K57N, Q82R, Y101F
VL: B4 VL with M4L, S10F, N31S, V43A, D70E, V85T, Y91L, K93S, W94Y
B13: M35: human anti-TMEFF1 IgG1 antibody; VH SEQ ID NO: 134, VL SEQ ID NO: 138 (antibody, V domains shown)
VH: QVQLQESGPGLVKPSGTLSLTCAVSGGSISSSNWWSWVRQPPGKGLEWIGEIYHSGSTNYNPSLKSRVTISVDKSKNQFSLKLSSVTAADTAVYYCATMVRGRYYYYGMDVWGQGTTVTVSS
VL: DIVMTQSPLSLPVTPGEPASISCRSSQSLLHSDGYNFLDWYLQKPGQSPQFLIYLGSNRASGVPDRFSGVGSGTDFTLQISRVEAEDFGVYYCMQALQAPWTFGQGTKLEIK

Legend:
[1] = tested on: hTMEFF1-ECD recombinant deletion mutants; test: Binding domain determination with hTMEFF1-ECD deletion mutants (Octet); design: species or system human; key: FS1—follistatin domain 1; FS2—follistatin domain 2; details: full length TMEFF1 ECD vs ΔFS1, ΔFS2, ΔFS1&FS2
Source text: TMEFF1 recombinant proteins expressing 3 different deletion mutants, AFS1 (AFollistatin Domain 1), AFS2 (AFollistatin Domain 2) or AFS1&FS2 were used to identify binding domains among different antibodes using an Octet Red instrument with Anti-Penta-His (HIS 1K) biosensors. Expression of the 3 deletion mutants was confirmed by WB analysis. 100 ngs of purified TMEFF1 ECD was run along with unpurified supernatant of transfected CHO cells with the different deletion mutants. HIS 1K biosensors were loaded by submerging the biosensors into wells containing 10 ug/ml of full length TMEFF1 or one of 3 different deletion mutants (AFS1, AFS2 or AFS1&FS2) for 60 seconds. Following the loading step, the biosensors were then dipped for 30 seconds in PBS before immersion for 30 seconds in 200 ul of unpurified recombinant antibodies for 30 seconds. The biosensors were then dipped briefly (30 seconds) in PBS to observe any dissociation. Samples were determined to show binding or no binding by comparing to a control well that contained no recombinant antibody. Differential binding to the deletion mutants allowed for determination of binding sites on TMEFF1 recombinant protein. For cases where the antibody bound all 3 recombinant proteins, the binding is outside of the deleted domains. For the case where binding is observed only on full length TMEFF1 and AFS2, the antibody is binding in the ΔFS1 domain.
26 of the identified antibodies were checked for epitope domain binding by Octet™ using the hTMEFF1-ECD recombinant deletion mutants (see Table 7, below).

recombinant TMEFF1 = molecular target: T1, recombinant TMEFF1; test: Binding competition binning (Octet); details: seven antibodies, 3 bins
Description: Binding competition among different antibodies was determined using a real-time, interferometry assay on an Octet Red™ instrument with Protein A-conjugated biosensors. To assess whether two antibodies competed for binding to a recombinant TMEFF1 protein, the assay was performed as follows. Protein A biosensors were first submerged into wells containing 10 ug/mL of individual monoclonal antibodies for 5 minutes. Following the capture step, the biosensors were dipped briefly (15 seconds) into buffer and then any unoccupied sites on the biosensor were saturated by submerging them for 5 minutes into wells containing 100 ug/mL of an irrelevant monoclonal antibody. The Octet biosensors were then dipped briefly (15 seconds) in buffer before immersion for 1 minute into wells containing recombinant TMEFF1. The biosensors were dipped briefly (15 seconds) in buffer before immersion for 1 minute into wells containing a second recombinant antibody.
For the control case where the second antibody was the same as the first, there was no increase in signal, because there was no additional binding to the recombinant target.
For the control case where buffer was used instead of the first antibody, no recombinant target bound the non-quenching antibody on the biosensor and no second antibody bound the biosensor.
Competition binning using Octet™ was done with seven antibodies and 3 separate bins were identified.

Molecule	Binding region (epitope domain binding) [1]	Competition binning (epitope bin) (recombinant TMEFF1)
B1	other	
B2	other	
B3	Other	bind a region different from FS1 or FS2 and compete with each other
B4	other	
B5	other	
B6	FS1	
B7	FS1	
B8	FS1	
B9	FS1	
B10	FS1	
B11	FS1	
B12	FS1	
B13	FS1	
